Measurements: patent US20210205462A1, “Translocation into Eukaryotic Cells” (The University Court of the University of Aberdeen, priority 2018, published 2021)

Experiments:
RTG-2 cells = assay: Translocation mechanism study with uptake pathway inhibitors in RTG-2 cells; assay type: cell-based, rainbow trout; settings: 80 μM dynasore, 1× Brefeldin A or 100 μM nystatin pre-incubation; 3 μM SpHtp1^24-68-mRFP 1 h at 18° C.
Description: Cell culture maintenance of fish RTG-2 (ATCC CCL-55) was done according to the manufacturer's or publisher's instructions. L-15 medium was supplemented with 10% FBS, 100 units/ml Penicillin and 100 μg/ml Streptomycin. Wells containing cover slips with attached cells of 80% confluent were washed 2× with HBSS before translocation experiments.
For experiments investigating translocation mechanism, cells were pre-incubated with various inhibitors (80 μM of dynasore, 1× Brefeldin A or 100 μM nystatin) for 1 h at 18° C., 2 h for dynasore (FIG. 2). Afterwards, 3 μM SpHtp1^24-68-mRPF were incubated for another 1 h at 18° C. For the time course experiment (FIG. 2) cells were pre-incubated with 10 μM dynasore and the incubation with 3 μM SpHtp1^24-68-mRPF at 18° C. stopped at the times as indicated. In order to investigate the influence of SpHtp1^24-198-His on the vesicle release of SpHtp3^21-211-RFP, 3 μM of each protein was pre-incubated in L-15 for 30 min at RT before added to the cells for the usual incubation of 1 h at 18° C.
(§1) After incubation human as well as fish cells were washed 3× with HBSS and fixed with 4% ice-cold PFA in PBST (PBS+0.1% tween) for 15 min at RT. Residual PFA was removed with 5× washing steps with PBS. Cells were mounted with Vectashield with DAPI. Samples were analysed by a Zeiss LSM710 confocal microscope or an epifluorescence microscope (Zeiss Imager M2 with metal halide light source). For quantification mean intensity or vesicles per cell were counted with ImageJ. A maximum of 5 cells were analysed from the same picture. Bars denote s.e.m of 50 cells counted per sample.

human A549 cells [1] = assay: Inhibitor studies of SpHtp1^24-68-mRFP translocation into A549 cells; assay type: cell-based
Description: (§2) Cell culture maintenance of human A549 cell, was done according to the manufacturer's or publisher's instructions. DMEM medium was supplemented with 10% FBS, 100 units/ml Penicillin and 100 μg/ml Streptomycin. Wells containing cover slips with attached cells of 80% confluent were washed 2× with HBSS before the translocation experiments.
For the inhibitor studies, A549 cells were pre-incubated with different concentrations of SCH-202676 (allosteric inhibitor via disulfhydryl group) as indicated for 1 h at 37° C. and after this incubated for another 1 h at 37° C. with 3 μM SpHtp1^24-68-mRPF.
as §1

β2-adrenergic receptor [2] = biological target: T1, β2-adrenergic receptor (Homo sapiens, UniProt P07550)
fish cells = assay: Translocation into fish cells; assay type: cell-based
[3] = tested on: human cells (such as HEK cells or the human epithelial lung cell line A549); assay: Translocation into human cells; assay type: cell-based
cells = assay: Cytotoxic effects, cell morphology and viability after extended incubation; assay type: cell-based; settings: extended incubation periods of up to 24 hours
β2-adrenergic receptor [4] = biological target: T1, β2-adrenergic receptor; assay: Co-immunoprecipitation with anti-β2 adrenoceptor antibody; assay type: binding; set-up: confluent A549 cells from a 75 cm^2 flask where detached and resuspended in 500 μl PBS; The cells were lysed by sonication; endogenous in cells; host or cells: A549 (human lung epithelial cell line), sonicated lysate supernatant; settings: A549 lysate, 10 μM SpHtp1^24-68-RFP; FIG. 3C
Description: For co-immunoprecipitation (FIG. 3) confluent A549 cells from a 75 cm^2 flask where detached and resuspended in 500 μl PBS. The cells were lysed by sonication (3×30 sec, 30% intensity, 1 min break on ice) and cell debris removed by centrifugation (16,000×g, 25 min, 4° C.). The supernatant was supplemented with 10 μM SpHtp1^24-68-RFP and 2.5 μg of an anti-82 adrenoceptor and incubated overnight on rotator at 4° C. The next day 200 μl PBS-equilibrated protein G/A beads were added for 2.5 h on rotator at 4° C. After, beads were washed 5 times with 1 ml PBS each. The elution was done with SDS sample buffer and boiling at 95° C. for 10 min.
For the immunoblot, samples were transferred to a nitrocellulose membrane and blocked with 5% milk powder in PBST (PBS+0.1% tween) for 1 h at RT. Incubation of the first antibody (anti-(32 adrenoceptor, 1:200) was done overnight on rotator at 4° C. Excess of antibody was removed by 3 washing steps with PBST, 5 min each. The secondary antibody (anti-rabbit HRP-coupled, 1:1000) was incubated for 1 h at RT in PBST with 5% milk powder. The membrane was washed 4 times (2×PBST and 2×PBS) before the bands were visualised with an ECL substrate and a developer.

SpHtp3 = assay: Protein cross linking of SpHtp1 and SpHtp3; assay type: binding, Saprolegnia parasitica; settings: PFA cross link; FIG. 5E
Description: In order to detect a direct interaction, 10 μg of SpHtp1 and 10 μg of SpHtp3 or each protein alone were pre-incubated in PBS (total: 15 μl) for 15 min at RT. For cross linking 15 μl ice-cold 4% PFA/PBS (final concentration: 2%) was added and incubated for 10 min at RT. The reaction was stopped with 7 μl Laemmli loading dye and subsequent heating to 65° C. for 10 min. Complex formation was investigated by SDS-PAGE and confirmed by LC-MS/MS.

human A549 cells [5] = assay: Translocation of SpHtp1^24-68-mRFP into human A549 cells; assay type: cell-based; settings: see FIG. 2A, 2C
Description: as §2
For translocation experiments using SpHtp1-coupled microparticles (FIG. 1), 300 μg carbon beads were pre-incubated with 3 μM SpHtp1^24-68-mRPF in 300 μl DMEM without Fetal Calf Serum for 1 h at 37° C. on a rotator to couple the SpHtp1 translocation sequence to the particles. […] Following coupling, the supplemented medium was applied to the cells for 1 h at 37° C. For translocation experiments using SpHtp1^24-68-mRPF (FIG. 2) cells were incubated with 3 μm SpHtp1^24-68-mRPF for 1 h at 37° C.
as §1

Molecule: C[C@H]1CCC/C=C/[C@@H]2C[C@H](O)C[C@H]2[C@H](O)/C=C/C(=O)O1 [Brefeldin A]
- effect on SpHtp1^24-68-mRFP translocation (RTG-2 cells): no effect

Molecule: CN=c1nc(-c2ccccc2)n(-c2ccccc2)s1 [SCH-202676]
- binding of SpHtp1^24-68-mRFP to the cells after pre-incubation with inhibitor (human A549 cells [1]; 10 μM SCH-202676, FIG. 3A): not influenced
- translocation of SpHtp1^24-68-mRFP into cells after pre-incubation with inhibitor (human A549 cells [1]; 10 μM SCH-202676, FIG. 3A): inhibited
- concentration dependence of inhibition of translocation (human A549 cells [1]; different concentrations, 1 h at 37° C., FIG. 3B): concentration-dependent

Molecule: NC[C@H](O)c1ccc(O)c(O)c1 [noradrenalin]
- effect of endogenous receptor ligands on the uptake of SpHtp1 (human A549 cells [1]): do not have an effect

Molecule: O=C(N/N=C/c1ccc(O)c(O)c1)c1cc2ccccc2cc1O [dynasore]
- effect on SpHtp1^24-68-mRFP translocation (RTG-2 cells): accumulation of red fluorescence at the membrane

Molecule: SpHtp1^24-68-mRFP
- uptake into the cell, EC50 (β2-adrenergic receptor [2]): 1.23 µM

Molecule: CNCC(O)c1ccc(O)c(O)c1 (stereo not drawn) [adrenalin]
- effect of endogenous receptor ligands on the uptake of SpHtp1 (human A549 cells [1]): do not have an effect

Molecule: C[C@@H]1[C@H](O)[C@@H](C)/C=C/C=C/CC/C=C/C=C/C=C/C=C/C(O[C@H]2O[C@H](C)[C@@H](O)[C@H](N)[C@@H]2O)CC2O[C@](O)(CC(O)C(O)CCC(O)CC(O)CC(O)CC(=O)O[C@H]1C)CC(O)C2C(=O)O (stereo partly drawn) [nystatin]
- effect on SpHtp1^24-68-mRFP translocation (RTG-2 cells): no effect

B1: SpHtp1a: SpHtp1 homolog shown in FIG. 6 (protein)
chain: MRIYHPLTLAALCVVLHESLGAAQHSNNVARLEHYSVAEIEHWEKRHLRNSDSRGHRHHAHHGQVIDKENNNSQEQATTGNSVETNQVPFTQPTKDKTASIKTAVFKLLRENKLKTKNAGNGHAHDDDDDDDSNFSDDDVPTNAPTGAPTGAPTDAPTNAPTDAPTDAPTDAPTDAPTDAPTDAPTDAPTTLPPMPRRRSHRCPDRHSHRCDPRRTHGCPD
modifications: SpHtp1a (1-221)
- translocation into fish cells (fish cells): able to translocate into both fish and human cells
- translocation into human cells [3]: able to translocate into both fish and human cells

B2: SpHtp1: putative effector protein from the fish pathogenic oomycete Saprolegnia parasitica, full-length 198 amino acids (protein)
chain: MRIHHPLTLAALCVVLHESLGAAQHSNNVARLEHYRIAEIEHWEKRHLRSDSRGHRHHAHHGQVIDKENNNSQEQATTGNSVETNQVPSTEPTKDKTTPMKNALFKLFREKKLKTKNAGNGHAHDDDDDSDFSDDDVPTNAPTDAPTGAPTDAPTDAPTVAPTDAPTDAPTEAPTNAPTGTDAPTDAPTDAQVVPTFD
modifications: SpHtp1 (1-198)
- cytotoxic effects, cell morphology, viability (cells): do not have any immediate cytotoxic effects on cells, and do not alter cell morphology or viability
- entry into human cells ([3]; via the β-adrenoceptor): able to enter human cells
- interaction with the β2-adrenergic receptor by co-immunoprecipitation (β2-adrenergic receptor [4]): at least indirect interaction
- in vitro complex formation after cross link (SDS-PAGE, LC-MS/MS) (SpHtp3): additional band for a cross-linked SpHtp1-SpHtp3 complex
- EC50 (human A549 cells [5]; cell line not given, read-out: uptake into the cell, EC50): 1.23 µM
- time of binding of SpHtp1 to the cell surface (human A549 cells [5]): 5 to 10 min
- time to significant uptake into the cell (human A549 cells [5]): 20 to 30 min
